Source: patent US8889130B2, “Treatment of osteoarthritis and pain” (Abbvie Inc., priority 2011, dated 2014)

B1: DVD2-Ig: DVD-Ig as DVD1-Ig but with linkers ADAAP (light chain) and AKTTPP (heavy chain) (antibody)
VH: MQLSGLTSEDSAMYFCVRFPTGNDYYAMDYWGQGTSVTVSSAKTTPPQIQLVQSGPELKKPGETVKISCKASGYTFRNYGMNWVKQAPGKDLKRMAWINTYTGESTYADDFKGRFAFSLETSASTAYLQINNLKNEDTATYFCARGIYYYGSSYAMDYWGQGTSVTVSS
VL: PVEADDAATYYCQQNNEDPFTFGSGTKLEIKRADAAPNIQMTQTTSSLSASLGDRVTISCRASQDISNCLNWYQQKPDGTVKLLIYYTSRLHSGVPSRFSGSGSGTDYSLTISNLEQEDIATYFCQQGKTLPYAFGGGTKLEINR
B2: DVD1-Ig: DVD-Ig binding hIL-1α and hIL-1β; VH/VL of 13F5.G5 fused directly to N-terminus of 3D12.E3 VH/VL, no linker (antibody)
VH: MQLSGLTSEDSAMYFCVRFPTGNDYYAMDYWGQGTSVTVSSQIQLVQSGPELKKPGETVKISCKASGYTFRNYGMNWVKQAPGKDLKRMAWINTYTGESTYADDFKGRFAFSLETSASTAYLQINNLKNEDTATYFCARGIYYYGSSYAMDYWGQGTSVTVSS
VL: PVEADDAATYYCQQNNEDPFTFGSGTKLEIKRNIQMTQTTSSLSASLGDRVTISCRASQDISNCLNWYQQKPDGTVKLLIYYTSRLHSGVPSRFSGSGSGTDYSLTISNLEQEDIATYFCQQGKTLPYAFGGGTKLEINRR

Columns and labels:
[1] = target: hIL-1β (Homo sapiens, UniProt P01584); assay: Surface plasmon resonance (Biacore) binding kinetics and affinity to hIL-1β; conditions: for koff / kon / Kd / Stoichiometry: antigen hIL-1β; for Kd: KD=koff/kon; for Stoichiometry: saturating binding conditions
Sequence of hIL-1β (P01584 117-269): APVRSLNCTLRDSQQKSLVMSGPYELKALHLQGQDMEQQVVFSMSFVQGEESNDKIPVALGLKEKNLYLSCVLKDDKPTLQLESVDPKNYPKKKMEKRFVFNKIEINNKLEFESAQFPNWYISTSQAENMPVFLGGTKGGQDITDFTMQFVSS
Protocol: (§1) The kinetics of DVD-Ig molecules binding to rhIL1-α and rhIL1-β was determined by surface plasmon resonance-based measurements with a Biacore 3000 instrument (Biacore AB, Uppsala, Sweden) using HBS-EP (10 mM HEPES, pH 7.4, 150 mM NaCl, 3 mM EDTA, and 0.005% surfactant P20) at 25° C. All chemicals were obtained from Biacore AB (Uppsala, Sweden) or otherwise from a different source as described herein. Approximately, 5000 RU of goat anti-human IgG Fcγ fragment specific polyclonal antibody (Pierce Biotechnology Inc, Rockford, Ill.) diluted in 10 mM sodium acetate (pH 4.5) was directly immobilized across a CM5 research grade biosensor chip using a standard amine coupling kit according to manufacturer's instructions and procedures at […]. Unreacted moieties on the biosensor surface were blocked with ethanolamine. Modified carboxymethyl dextran surface in flowcell 2 and 4 was used as a reaction surface. Unmodified carboxymethyl dextran without goat anti-human IgG in flow cell 1 and 3 was used as the reference surface. For kinetic analysis, rate equations derived from the 1:1 Langmuir binding model were fitted simultaneously to association and dissociation phases of all ten injections (using global fit analysis) using the Bioevaluation 4.0.1 software. Purified DVD-Ig samples were diluted in HEPES-buffered saline for capture across goat anti-human IgG Fc specific reaction surfaces and injected over reaction matrices at a flow rate of […]. The association and dissociation rate constants, kon (M-1s-1) and koff (s-1) were determined under a continuous flow rate of […]. Rate constants were derived by making kinetic binding measurements at ten different antigen concentrations ranging from 1.25 to 1000 nM. The equilibrium dissociation constant (M) of the reaction between DVD-Ig molecule and rhIL1α/β was then calculated from the kinetic rate constants by the following formula: KD=koff/kon. Aliquots of rhIL1α/β samples were also simultaneously injected over a blank reference and reaction CM surface to record and subtract any nonspecific binding background to eliminate the majority of the refractive index change and injection noise. Surfaces were regenerated with two subsequent […] injections of 10 mM Glycine (pH 1.5) at a flow rate of […]. The anti-Fc antibody immobilized surfaces were completely regenerated and retained their full capture capacity over twelve cycles. The apparent stoichiometry of the captured DVD-Ig-rhIL1α/β complex was calculated under saturating binding conditions (steady-state equilibrium) using the following formula: […]

[2] = target: T1, hIL-1α (Homo sapiens, UniProt P01583); assay: Tetravalent dual-specific antigen binding by Biacore (sequential antigen injection), hIL-1α; conditions: for Response Unit, 1st antigen hIL-1α: hIL-1α injected as 1st antigen on captured DVD-Ig; for Response Unit, 2nd antigen hIL-1α: hIL-1α injected as 2nd antigen after hIL-1β
T1 sequence (P01583 113-271): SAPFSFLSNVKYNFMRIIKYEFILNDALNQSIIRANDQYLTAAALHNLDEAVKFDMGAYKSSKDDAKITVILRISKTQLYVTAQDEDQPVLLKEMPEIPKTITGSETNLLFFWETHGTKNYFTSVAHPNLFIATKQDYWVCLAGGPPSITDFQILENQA
Protocol: as §1
In addition, tetravalent dual-specific antigen binding of DVD-Ig binding protein was also analyzed by Biacore (Table 14). DVD-Ig binding protein was first captured via a goat anti-human Fc antibody on the Biacore sensor chip, and the first antigen was injected and a binding signal observed. As the DVD-Ig binding protein was saturated by the first antigen, the second antigen was then injected and the second signal observed. This was done either by first injecting IL-1β then IL-1α or by first injecting IL-1α followed by IL-1β for DVD2-Ig binding protein. In either sequence, a dual-binding activity was detected. Similar results were obtained for DVD1-Ig binding protein. Thus, each DVD-Ig binding protein was able to bind both antigens simultaneously as a dual-specific tetravalent molecule. […] Upon the injection of the second antigen, while DVD-Ig binding protein was already occupied by the first antigen, the stoichiometry of both DVD-Igs binding protein to the second antigen (i.e., hIL-1α or hIL-1β was between 1.0 and 1.3. Thus, DVD-Ig binding protein was able to bind two IL-1α and two IL-β molecules. DVD-Ig binding protein was first captured via a goat anti-human Fc antibody on the Biacore sensor chip, and the first antigen was injected and a binding signal observed, followed by the injection of the second antigen.

[3] = target: T1, hIL-1α; assay: Surface plasmon resonance (Biacore) binding kinetics and affinity to hIL-1α; conditions: antigen hIL-1α; for Kd: KD=koff/kon
Protocol: as §1

[4] = hIL-1α injected as 2nd antigen, DVD-Ig already saturated with hIL-1β

Row | Molecule | binding affinity to hIL-1β, fold higher than that of DVD1-Ig [1] [fold] | koff [1] [s⁻¹] | kon [1] [M⁻¹ s⁻¹] | Kd [1] [nM] | Stoichiometry [1] | Stoichiometry hIL-1α:DVD-Ig ([2]; hIL-1α injected as 1st antigen) | Response Unit, 1st antigen hIL-1α [2] [Response Unit] | Response Unit, 2nd antigen hIL-1α [2] | Stoichiometry hIL-1α:DVD-Ig [2, 4] | koff [3] [s⁻¹] | kon [3] [M⁻¹ s⁻¹] | Kd [3] [nM] | Stoichiometry ([3]; saturating binding conditions)
1 | B1 | 3 | 0.00095 | 1.19e+06 | 0.798 | 1.8 | 1.8 | 209 | hIL-1α: 131 Response Unit | 1.2 | 0.000252 | 73500 | 3.42 | –
2 | B2 | – | 0.00159 | 609000 | 2.6 | 1.5 | 2.3 | 190 | hIL-1α: 107 Response Unit | 1.1 | 0.000105 | 37000 | 2.83 | 1.8
